The values that follow come from article PMC4159047 (Science signaling, 2014).

The target of assay [1] is type IV collagen. Nature of the assay: SPR. On the technique in general: SPR reads the build-up and loss of mass on a sensor chip optically.
Assay [2] concerns the target type IV collagen (biotin (Pierce EZ-link biotinylation kit) in the pull-downs). The assay can be described thus: SPR.

“Gpr126-NT-Fc (secreted, Fc-tagged protein containing the N-terminal fragment of zebrafish Gpr126) (Fc fusion)”: in the assay with type IV collagen [1], the Kd (in general, the equilibrium constant for the complex coming apart) is 1.3 nM; the koff (in general, the rate constant with which the complex falls apart) worked out at 0.000404 s⁻¹; the kon (as a rule, the second-order rate constant of association) was 306000 M⁻¹ s⁻¹.

B1: CUBPTX-Fc (signal peptide, CUB domain and PTX domain of Gpr126 followed by an Fc tag) (Fc fusion, zebrafish, UniProt C6KFA3 41-336, looked up)
chain: CNVVLTDSQGSFTSPCYPNDYPPSQSCNWTIQAPAGFIVQITFLDFELEEAQGCIYDRVVVKTGTSDAKFCGLTANGLTLNSTGNVMEVFFNSDFSVQKKGFHISYKQVAVTLRNQKVTMPKSSKTILRVSNSISIPVLTAFTVCFEIARTAQKATETIFTLSDAAGTSILAFEKTSNGMELFIGASYCSVDNLLTSSDITATMKPLCLTWTKSSGLIGVYFGGHYFSSICSASQIYTLQSGGLLQIAGKGSSSVSVDDQNLDGFIYNFRLWDHAMLSSELSALTCDTVGNVVDWD
Turning to B1, in the assay with type IV collagen [2], the Kd was found to be 1.2 nM, the koff was determined as 0.00333 s⁻¹ and the on-rate constant (kon) came to 2.78e+06 M⁻¹ s⁻¹.
